Measurements as given in US20140087395A1.

Target: pig asialo-thyroglobulin (pig) (UniProt F1RRV3)
Test: cell-based or functional assay

UniProt F1RRV3, sequence (F1RRV3 20-2692 limits assumed): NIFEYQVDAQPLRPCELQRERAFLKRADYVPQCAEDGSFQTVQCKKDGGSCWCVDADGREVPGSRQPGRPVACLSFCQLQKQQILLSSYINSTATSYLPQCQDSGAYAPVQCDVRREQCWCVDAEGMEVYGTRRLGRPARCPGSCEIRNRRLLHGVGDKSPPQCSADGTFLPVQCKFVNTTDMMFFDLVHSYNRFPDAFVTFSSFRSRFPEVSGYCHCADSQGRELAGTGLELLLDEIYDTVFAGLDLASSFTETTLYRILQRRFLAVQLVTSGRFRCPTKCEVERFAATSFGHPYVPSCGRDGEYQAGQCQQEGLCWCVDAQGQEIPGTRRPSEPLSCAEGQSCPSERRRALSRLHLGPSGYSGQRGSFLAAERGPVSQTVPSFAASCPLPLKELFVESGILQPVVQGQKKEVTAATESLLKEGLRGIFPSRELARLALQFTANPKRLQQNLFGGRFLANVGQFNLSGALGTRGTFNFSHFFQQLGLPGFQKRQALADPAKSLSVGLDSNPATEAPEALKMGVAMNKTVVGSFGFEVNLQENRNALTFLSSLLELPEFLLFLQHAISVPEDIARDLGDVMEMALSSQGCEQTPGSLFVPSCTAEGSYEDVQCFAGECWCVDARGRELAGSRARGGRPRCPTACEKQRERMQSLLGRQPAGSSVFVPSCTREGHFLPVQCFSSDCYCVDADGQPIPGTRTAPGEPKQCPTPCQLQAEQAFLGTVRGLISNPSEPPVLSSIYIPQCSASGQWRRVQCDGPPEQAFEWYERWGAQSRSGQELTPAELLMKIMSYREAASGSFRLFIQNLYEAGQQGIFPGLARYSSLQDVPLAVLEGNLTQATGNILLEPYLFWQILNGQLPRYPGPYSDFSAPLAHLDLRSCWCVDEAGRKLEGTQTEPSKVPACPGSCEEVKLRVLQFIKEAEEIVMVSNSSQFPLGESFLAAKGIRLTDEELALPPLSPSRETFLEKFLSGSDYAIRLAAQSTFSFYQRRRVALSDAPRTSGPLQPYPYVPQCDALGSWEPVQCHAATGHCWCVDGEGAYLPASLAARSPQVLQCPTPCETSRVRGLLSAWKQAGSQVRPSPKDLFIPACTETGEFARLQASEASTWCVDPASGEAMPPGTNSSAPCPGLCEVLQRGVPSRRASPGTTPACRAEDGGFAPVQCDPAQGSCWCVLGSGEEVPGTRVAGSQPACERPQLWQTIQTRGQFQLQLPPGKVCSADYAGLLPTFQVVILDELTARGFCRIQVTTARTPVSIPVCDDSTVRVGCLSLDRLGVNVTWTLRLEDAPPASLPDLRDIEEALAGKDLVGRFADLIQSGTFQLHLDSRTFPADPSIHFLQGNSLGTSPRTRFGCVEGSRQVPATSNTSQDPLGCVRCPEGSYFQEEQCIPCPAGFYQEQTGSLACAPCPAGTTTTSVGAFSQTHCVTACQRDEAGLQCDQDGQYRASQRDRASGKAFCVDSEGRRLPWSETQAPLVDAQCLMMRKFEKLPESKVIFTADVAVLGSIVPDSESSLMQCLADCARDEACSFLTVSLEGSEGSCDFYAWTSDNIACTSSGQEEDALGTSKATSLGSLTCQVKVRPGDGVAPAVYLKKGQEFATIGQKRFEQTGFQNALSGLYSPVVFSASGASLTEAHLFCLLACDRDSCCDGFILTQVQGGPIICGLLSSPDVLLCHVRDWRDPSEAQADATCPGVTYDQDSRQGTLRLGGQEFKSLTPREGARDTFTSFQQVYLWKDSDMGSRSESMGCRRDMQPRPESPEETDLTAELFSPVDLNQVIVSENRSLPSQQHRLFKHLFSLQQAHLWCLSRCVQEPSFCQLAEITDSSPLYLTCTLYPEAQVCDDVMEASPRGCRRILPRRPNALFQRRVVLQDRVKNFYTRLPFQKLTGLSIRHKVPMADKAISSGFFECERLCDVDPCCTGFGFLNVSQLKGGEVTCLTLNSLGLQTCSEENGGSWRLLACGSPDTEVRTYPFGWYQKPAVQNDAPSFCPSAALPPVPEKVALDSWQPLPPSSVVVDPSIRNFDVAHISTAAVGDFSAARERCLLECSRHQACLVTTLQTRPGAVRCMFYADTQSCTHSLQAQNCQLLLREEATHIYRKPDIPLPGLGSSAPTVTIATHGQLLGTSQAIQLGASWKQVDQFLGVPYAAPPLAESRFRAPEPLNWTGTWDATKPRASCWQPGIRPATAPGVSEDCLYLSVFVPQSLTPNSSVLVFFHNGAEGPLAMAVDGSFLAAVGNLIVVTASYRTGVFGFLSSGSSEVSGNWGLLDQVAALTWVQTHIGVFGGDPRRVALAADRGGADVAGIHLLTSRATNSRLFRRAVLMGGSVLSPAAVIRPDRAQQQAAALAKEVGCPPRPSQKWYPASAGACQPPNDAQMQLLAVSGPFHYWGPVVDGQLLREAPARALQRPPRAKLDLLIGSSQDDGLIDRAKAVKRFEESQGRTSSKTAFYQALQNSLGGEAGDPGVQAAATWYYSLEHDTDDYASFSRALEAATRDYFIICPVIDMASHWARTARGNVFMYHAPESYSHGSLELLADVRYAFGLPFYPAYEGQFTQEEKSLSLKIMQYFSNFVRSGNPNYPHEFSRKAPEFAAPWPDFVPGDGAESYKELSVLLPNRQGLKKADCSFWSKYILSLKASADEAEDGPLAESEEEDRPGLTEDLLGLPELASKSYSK

inhibition of hemagglutination activity (trypsin-treated rabbit red blood cells): 31 µg/mL
Substance: CBA (Codium barbatum agglutinin), purified from Codium barbatum
